Results published in article PMC5027616, “IL-13Rα2 uses TMEM219 in chitinase 3-like-1-induced signalling and effector responses” (Nature Communications, 2016).

Molecular target: T1, IL-13Rα2-Chi3l1 complexes (labelled) (UniProt Q14627 27-343; P36222 22-383, BODPY-TRM-X-succinimidyl ester label)
T1 construct: IL-13 receptor alpha 2, ectodomain; as m13; chitinase 3-like-1; as m12; The legend calls the complexes labelled; also called IL-13Rα2 complexed with Chi3l1; source: both proteins from the baculovirus-insect cell expression system, purified; complex formed before the titration
T1 sequence (Q14627 27-343, chain 1 of 2): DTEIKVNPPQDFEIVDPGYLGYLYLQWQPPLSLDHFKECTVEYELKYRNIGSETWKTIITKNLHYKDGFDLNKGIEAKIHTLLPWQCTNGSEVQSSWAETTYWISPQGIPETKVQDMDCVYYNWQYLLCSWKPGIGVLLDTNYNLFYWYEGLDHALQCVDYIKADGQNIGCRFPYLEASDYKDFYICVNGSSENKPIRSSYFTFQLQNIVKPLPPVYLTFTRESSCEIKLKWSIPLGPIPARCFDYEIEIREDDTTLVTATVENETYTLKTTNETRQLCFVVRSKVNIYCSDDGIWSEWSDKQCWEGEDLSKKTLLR
T1 sequence (P36222 22-383, chain 2 of 2): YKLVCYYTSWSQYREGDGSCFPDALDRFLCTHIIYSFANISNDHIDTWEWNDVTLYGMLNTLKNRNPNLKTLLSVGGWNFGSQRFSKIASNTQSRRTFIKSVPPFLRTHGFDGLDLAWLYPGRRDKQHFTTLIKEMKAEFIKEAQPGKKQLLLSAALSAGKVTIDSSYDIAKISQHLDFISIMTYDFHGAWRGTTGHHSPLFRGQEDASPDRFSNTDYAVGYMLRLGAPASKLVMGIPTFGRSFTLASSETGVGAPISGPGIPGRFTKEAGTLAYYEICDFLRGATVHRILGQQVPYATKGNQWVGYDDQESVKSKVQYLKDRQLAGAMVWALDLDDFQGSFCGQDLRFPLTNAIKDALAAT
Experiment: fluorescence polarisation; fluorescence anisotropy; serial dilutions of TMEM219 in 13 nm nanodisc (10 nM-10 μM) added to 10 nM labelled protein or complex; PBS for labelling; empty nanodisc as control
Details: both partners purified

B1: His-tagged human TMEM219 (natural protein, UniProt Q86XT9 39-240, looked up)
chain: SFLLTHRTGLRSPDIPQDWVSFLRSFGQLTLCPRNGTVTGKWRGSHVVGLLTTLNFGDGPDRNKTRTFQATVLGSQMGLKGSSAGQLVLITARVTTERTAGTCLYFSAVPGILPSSQPPISCSEEGAGNATLSPRMGEECVSVWSHEGLVLTKLLTSEELALCGSRLLVLGSFLLLFCGLLCCVTAMCFHPRRESHWSRTRL
notes: also called recombinant human (rh) TMEM219; rTMEM219; source: HEK293T cells (pcDNA3.1), purified (Nickel beads)
B1 was tested, and the Kd was ~288 nM.
